Data on two molecules can be found in US20060257866, “Methods for identifying small molecules that modulate premature translation termination and nonsense mediated mrna decay” (published 2006).

Series [1] addresses T1, Tat47-58 peptide (HIV-1 Tat) (HIV-1).
T1 chain: YGRKKRRQRRRP
Briefly: EMSA; TK buffer: 50 mM Tris-HCl pH 7.4, 20 mM KCl, 0.5 mM MgCl2, 0.1% Triton X-100; peptide 0.1-1.6 uM; annealed from 90 C to 24 C; gel at 4 C. The following applies: protein: synthetic; label: 5'-fluorescein, 3'-32P cytidine bisphosphate; hairpin. In general terms: Mobility shift assays separate free from complexed probe on a gel.

For series [2], the target named is T1, Tat47-58 peptide (HIV-1 Tat). Briefly: EMSA; capillary electrophoresis mobility shift; TK buffer 0.5 mM MgCl2; peptide 0.1-1.6 mM as printed. The following applies: protein: synthetic; label: 5'-fluorescein; hairpin.

Consider GGCAGAUCUGAGCCUGGGAGCUCUCUGCC (ssRNA) [HIV-1 TAR RNA oligonucleotide], for which the binding result in series [1] is on record as “binds”. Take GGCAGAUCUGAGCCUGGGAGCUCUCUGCC (ssRNA) [HIV-1 TAR RNA oligonucleotide (fluorescein only)]: the binding result in series [2] was “binds”.
